Data as given in publication PMC10390531, “Structural insights into ligand recognition and subtype selectivity of the human melanocortin-3 and melanocortin-5 receptors” (Cell Discovery, 2023).
Entries after “also recorded” stand apart in the source; their conditions may differ.

Experiments:
MC5R = assay: Effect of divalent ions on cAMP accumulation, MC5R; type: cell-based, human
Experimental: (§1) For assessing the effect of divalent ions on cAMP signaling, HEK293T cells were digested with 0.02% (w/v) EDTA and washed three times with calcium/magnesium-free HBSS buffer. Then the cells were resuspended and stimulated with different concentrations of ligands in Ca^2+-free stimulation buffer (the aforementioned stimulation buffer supplemented with 1 mM EGTA), or with additional 2 mM divalent ions in Ca^2+-free stimulation buffer ([divalent ions] = ~1 mM)[38]. The rest of steps were essentially the same as described above.

MC3R = assay: Effect of divalent ions on cAMP accumulation, MC3R; type: cell-based, human
Experimental: as §1

[1] = target: MC5R mutant L99^2.67A (human) (UniProt P33032)
[2] = target: MC3R mutant L128^3.36V (human) (UniProt P41968)
[3] = target: MC5R mutant V126L (human) (UniProt P33032)
[4] = target: MC3R mutant L128^3.36A (human) (UniProt P41968)
[5] = target: MC5R mutant V126^3.36A (human) (UniProt P33032)
[6] = target: MC5R mutant F254^6.51A (human) (UniProt P33032)
[7] = target: MC5R mutant F118^3.28A (human) (UniProt P33032)
[8] = target: MC5R mutant D115^3.25A (human) (UniProt P33032)
[9] = target: wild-type MC5R on cells (human) (UniProt P33032)
MC2R = assay: Effect of divalent ions on cAMP accumulation, MC2R; type: cell-based; details: 1 mM Ca^2+ vs divalent ion-free background, HEK293T
Experimental: as §1

wild-type MC2R on cells = wild-type MC2R on cells (UniProt Q01718)
[10] = target: MC5R mutant F254^6.51A (human) (UniProt P33032); remark: listed apart in the source
[11] = target: MC5R mutant D119^3.29A (human) (UniProt P33032)
[12] = target: MC5R mutant D115^3.25A (human) (UniProt P33032); remark: listed apart in the source
[13] = target: MC3R mutant F45^1.39A (human) (UniProt P41968)
[14] = target: MC3R mutant I265^6.58Y (human) (UniProt P41968)
[15] = target: MC3R mutant I265^6.58M (human) (UniProt P41968)
[16] = target: MC3R mutant I265^6.58W (human) (UniProt P41968)
wild-type MC1R on cells = wild-type MC1R on cells (UniProt Q01726)
[17] = target: wild-type MC3R on cells (human) (UniProt P41968)
[18] = target: MC3R mutant I180^4.61A (human) (UniProt P41968)
[19] = target: MC3R mutant H261^6.54A (human) (UniProt P41968)
[20] = target: MC3R mutant D121^3.29A (human) (UniProt P41968)
[21] = target: MC3R mutant F258^6.51A (human) (UniProt P41968)
[22] = target: MC3R mutant F45^1.39A (human) (UniProt P41968); remark: listed apart in the source

wild-type MC5R on cells (human), sequence (P33032 whole entry): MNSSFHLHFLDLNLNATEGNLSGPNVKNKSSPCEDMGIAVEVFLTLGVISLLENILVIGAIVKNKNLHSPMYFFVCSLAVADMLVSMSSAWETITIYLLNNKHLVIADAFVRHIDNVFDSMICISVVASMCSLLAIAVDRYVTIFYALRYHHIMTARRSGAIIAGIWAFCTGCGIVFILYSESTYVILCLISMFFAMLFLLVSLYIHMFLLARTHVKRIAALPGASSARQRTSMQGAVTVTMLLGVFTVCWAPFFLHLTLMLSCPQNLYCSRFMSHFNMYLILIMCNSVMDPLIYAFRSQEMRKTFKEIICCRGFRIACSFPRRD
MC3R mutant F45^1.39A (human), sequence (P41968 other isoform, or with tags, fused parts or gaps mutant): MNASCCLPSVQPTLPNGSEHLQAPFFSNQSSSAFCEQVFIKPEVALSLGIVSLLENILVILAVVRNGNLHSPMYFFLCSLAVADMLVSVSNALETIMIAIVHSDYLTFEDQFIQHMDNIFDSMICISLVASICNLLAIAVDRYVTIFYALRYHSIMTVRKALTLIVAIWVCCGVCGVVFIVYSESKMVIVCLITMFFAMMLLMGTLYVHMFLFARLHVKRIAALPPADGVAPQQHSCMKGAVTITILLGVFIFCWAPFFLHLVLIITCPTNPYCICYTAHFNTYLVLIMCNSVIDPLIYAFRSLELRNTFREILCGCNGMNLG
MC5R mutant F254^6.51A (human), sequence (P33032 other isoform, or with tags, fused parts or gaps mutant): as the sequence (P33032 whole entry) above, with F254A counted along it
MC5R mutant D115^3.25A (human), sequence (P33032 other isoform, or with tags, fused parts or gaps mutant): as the sequence (P33032 whole entry) above, with D115A counted along it
MC5R mutant F118^3.28A (human), sequence (P33032 other isoform, or with tags, fused parts or gaps mutant): as the sequence (P33032 whole entry) above, with F118A counted along it
MC3R mutant L128^3.36A (human), sequence (P41968 other isoform, or with tags, fused parts or gaps mutant): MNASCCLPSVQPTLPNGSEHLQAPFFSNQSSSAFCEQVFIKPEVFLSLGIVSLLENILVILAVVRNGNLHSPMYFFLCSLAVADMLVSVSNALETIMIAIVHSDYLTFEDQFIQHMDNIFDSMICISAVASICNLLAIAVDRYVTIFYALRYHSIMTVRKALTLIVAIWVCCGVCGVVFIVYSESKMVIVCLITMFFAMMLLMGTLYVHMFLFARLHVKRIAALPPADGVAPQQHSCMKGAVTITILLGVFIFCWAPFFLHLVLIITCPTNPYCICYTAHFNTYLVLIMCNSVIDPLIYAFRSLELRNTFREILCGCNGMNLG
MC3R mutant H261^6.54A (human), sequence (P41968 other isoform, or with tags, fused parts or gaps mutant): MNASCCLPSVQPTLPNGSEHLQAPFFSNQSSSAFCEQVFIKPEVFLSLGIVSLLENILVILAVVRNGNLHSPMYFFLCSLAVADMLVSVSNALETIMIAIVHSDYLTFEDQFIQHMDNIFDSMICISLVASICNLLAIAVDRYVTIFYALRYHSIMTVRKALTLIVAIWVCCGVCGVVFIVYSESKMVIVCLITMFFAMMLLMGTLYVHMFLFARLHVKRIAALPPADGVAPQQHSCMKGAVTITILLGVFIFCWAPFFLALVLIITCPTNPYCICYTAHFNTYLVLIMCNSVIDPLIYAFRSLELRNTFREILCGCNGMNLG
MC3R mutant I265^6.58W (human), sequence (P41968 other isoform, or with tags, fused parts or gaps mutant): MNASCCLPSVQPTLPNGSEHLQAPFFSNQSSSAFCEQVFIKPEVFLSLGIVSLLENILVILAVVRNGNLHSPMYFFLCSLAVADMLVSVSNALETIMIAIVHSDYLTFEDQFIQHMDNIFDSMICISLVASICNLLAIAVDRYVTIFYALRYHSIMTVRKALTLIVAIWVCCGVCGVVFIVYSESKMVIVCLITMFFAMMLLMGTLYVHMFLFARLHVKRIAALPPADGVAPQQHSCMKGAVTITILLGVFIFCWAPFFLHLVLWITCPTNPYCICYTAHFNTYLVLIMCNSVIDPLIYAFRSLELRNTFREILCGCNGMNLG
wild-type MC1R on cells, sequence (Q01726 whole entry): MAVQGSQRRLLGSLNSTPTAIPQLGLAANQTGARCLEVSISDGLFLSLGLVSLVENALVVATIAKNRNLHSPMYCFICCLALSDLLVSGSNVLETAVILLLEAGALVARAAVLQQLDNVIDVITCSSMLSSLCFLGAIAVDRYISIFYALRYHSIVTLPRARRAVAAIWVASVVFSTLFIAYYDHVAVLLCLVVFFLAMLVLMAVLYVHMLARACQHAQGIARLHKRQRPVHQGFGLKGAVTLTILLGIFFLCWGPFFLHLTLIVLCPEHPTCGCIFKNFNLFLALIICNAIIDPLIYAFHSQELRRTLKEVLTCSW
MC5R mutant V126^3.36A (human), sequence (P33032 other isoform, or with tags, fused parts or gaps mutant): as the sequence (P33032 whole entry) above, with V126A counted along it
MC3R mutant I265^6.58Y (human), sequence (P41968 other isoform, or with tags, fused parts or gaps mutant): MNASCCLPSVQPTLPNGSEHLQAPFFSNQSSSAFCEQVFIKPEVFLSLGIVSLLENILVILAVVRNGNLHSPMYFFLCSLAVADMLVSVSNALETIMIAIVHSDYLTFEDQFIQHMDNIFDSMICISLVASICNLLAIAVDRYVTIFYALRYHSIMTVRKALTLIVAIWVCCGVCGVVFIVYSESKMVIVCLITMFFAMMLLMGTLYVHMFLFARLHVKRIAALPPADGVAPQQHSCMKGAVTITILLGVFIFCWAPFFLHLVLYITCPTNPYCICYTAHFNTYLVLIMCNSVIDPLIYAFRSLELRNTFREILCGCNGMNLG
MC5R mutant D119^3.29A (human), sequence (P33032 other isoform, or with tags, fused parts or gaps mutant): as the sequence (P33032 whole entry) above, with D119A counted along it
MC5R mutant L99^2.67A (human), sequence (P33032 other isoform, or with tags, fused parts or gaps mutant): as the sequence (P33032 whole entry) above, with L99A counted along it
MC3R mutant I265^6.58M (human), sequence (P41968 other isoform, or with tags, fused parts or gaps mutant): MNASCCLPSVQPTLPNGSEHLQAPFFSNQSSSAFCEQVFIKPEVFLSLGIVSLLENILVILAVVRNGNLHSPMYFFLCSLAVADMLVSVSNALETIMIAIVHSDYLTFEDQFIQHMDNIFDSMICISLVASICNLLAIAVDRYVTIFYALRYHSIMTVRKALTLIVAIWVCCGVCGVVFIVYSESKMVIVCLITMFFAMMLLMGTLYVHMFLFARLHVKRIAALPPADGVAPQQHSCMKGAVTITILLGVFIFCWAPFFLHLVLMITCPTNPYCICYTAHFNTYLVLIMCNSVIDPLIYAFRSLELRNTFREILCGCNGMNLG
MC3R mutant L128^3.36V (human), sequence (P41968 other isoform, or with tags, fused parts or gaps mutant): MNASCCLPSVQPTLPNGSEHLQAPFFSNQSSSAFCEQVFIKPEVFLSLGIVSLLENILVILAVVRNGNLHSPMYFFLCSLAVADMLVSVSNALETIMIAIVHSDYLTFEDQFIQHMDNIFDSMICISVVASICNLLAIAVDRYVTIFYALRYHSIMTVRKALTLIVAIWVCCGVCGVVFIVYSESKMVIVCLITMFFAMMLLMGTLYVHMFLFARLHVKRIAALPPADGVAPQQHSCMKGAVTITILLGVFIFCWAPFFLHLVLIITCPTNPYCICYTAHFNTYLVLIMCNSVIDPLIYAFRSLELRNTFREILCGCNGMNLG

[Mg+2] [Mg^2+, magnesium ion]
effect of Mg^2+ on Gs signaling (MC5R; 1 mM Mg^2+): neglectable impact; also recorded: little impact
effect of Mg^2+ on Gs signaling (MC3R; 1 mM Mg^2+): neglectable impact; also recorded: little impact

[Zn+2] [Zn^2+, zinc ion]
effect of Zn^2+ on ligand-induced cAMP response (MC5R; 1 mM Zn^2+, α-MSH or PG-901): dramatic reduction of cAMP response; also recorded: inhibited the efficacy
effect of Zn^2+ on ligand-induced cAMP response (MC3R; 1 mM Zn^2+, γ-MSH): dramatic reduction of cAMP response; also recorded: inhibited the efficacy

PG-901 (peptide)
PG-901-induced cAMP accumulation, HEK293T cells; fold reduction against WT [1]: 10 fold
PG-901-induced cAMP response, HEK293T cells; EC50 [2]: 32 nM
PG-901-induced cAMP responses, HEK293T cells; fold reduction against WT [3]: 16 fold
PG-901-induced cAMP response, HEK293T cells; EC50 [4]: 250 nM
PG-901-induced cAMP accumulation, HEK293T cells; fold decrease of potency against WT [5]: 8 fold
PG-901-induced cAMP accumulation, HEK293T cells; fold decrease of potency against WT [6]: 44 fold
PG-901-induced cAMP accumulation, HEK293T cells; fold reduction against WT [7]: 4 fold
PG-901-induced cAMP accumulation, HEK293T cells; fold reduction against WT [8]: 43 fold
PG-901-induced cAMP accumulation, HEK293T cells; fold increase of potency with 1 mM Ca2+ against a divalent ion-free background [9]: 230 fold

adrenocorticotropic hormone (SYSMEHFRWGKPVGKKRRPVKVYPNGAEDESAEAFPLEF; Corticotropin; UniProt P01189 138-176, looked up) [ACTH]
increase of potency by Ca^2+ (MC2R): 6309 fold

adrenocorticotropic hormone (peptide)
ACTH-induced cAMP accumulation, HEK293T cells; fold increase of potency with 1 mM Ca2+ against a divalent ion-free background (wild-type MC2R on cells): 6310 fold

α-MSH (peptide)
α-MSH-induced cAMP accumulation, HEK293T cells; fold decrease of potency against WT [10]: > 100 fold
α-MSH-induced cAMP accumulation, HEK293T cells; fold increase of potency with 1 mM Ca2+ against a divalent ion-free background [9]: 182 fold
α-MSH-induced cAMP accumulation, HEK293T cells; fold reduction against WT [11]: 447 fold
α-MSH-induced cAMP accumulation, HEK293T cells; fold decrease of potency against WT [12]: 269 fold

γ-MSH (peptide)
fold reduction of binding affinity against the wild type [13]: 48 fold
γ-MSH-induced cAMP accumulation, HEK293T cells; fold decrease of potency against WT [14]: 4 fold
γ-MSH-induced cAMP accumulation, HEK293T cells; fold decrease of potency against WT [15]: 3 fold
γ-MSH-induced cAMP accumulation, HEK293T cells; fold decrease of potency against WT [16]: 18 fold
γ-MSH-induced cAMP accumulation, HEK293T cells; fold increase of potency with 1 mM Ca2+ against a divalent ion-free background (wild-type MC1R on cells): 294 fold
γ-MSH-induced cAMP accumulation, HEK293T cells; fold increase of potency with 1 mM Ca2+ against a divalent ion-free background [17]: 407 fold
γ-MSH-induced cAMP accumulation, HEK293T cells; fold decrease of potency against WT [18]: 22 fold
γ-MSH-induced cAMP accumulation, HEK293T cells; fold decrease of potency against WT [19]: 32 fold
γ-MSH-induced cAMP accumulation, HEK293T cells; fold decrease of potency against WT [20]: 22 fold
γ-MSH-induced cAMP accumulation, HEK293T cells; fold decrease of potency against WT [21]: 30 fold
γ-MSH-induced cAMP accumulation, HEK293T cells; fold reduction of potency against WT [22]: 126 fold
